The values below come from paper PMC8508685, “The Ephb2 Receptor Uses Homotypic, Head-to-Tail Interactions within Its Ectodomain as an Autoinhibitory Control Mechanism” (International Journal of Molecular Sciences, 2021).

Data set [1] addresses human EphB2 full-length N482Q (human) (UniProt P29323).
Data set [2] concerns the target human EphB2 full-length Q472A/Y473A/E480A/Y481A (human) (UniProt P29323).
Data set [3] has as its target human EphB2 full-length Y481E (human) (UniProt P29323).
Data set [4] concerns the molecule itself. Briefly: crystal structure; unliganded EphB2-ECD at 10 mg/mL in HBS, hanging drop at room temperature, 1.1 M Na Succinate, 0.1 M Na Acetate pH 4.8, 5% MPD, 3% 1,6-Hexanediol; 3.1 Å; head-to-tail contact between neighbouring molecules in the crystal.

Consider “human EphB2 full-length N482Q (from UniProt P29323 19-1055) (receptor)”, for which the EphB2 phosphorylation in HEK293 cells after ephrin stimulation (anti-phosphotyrosine IP, anti-EphB2 blot), band intensity compared with the wild-type receptor (% higher than wild type) in data set [1] is 40.
For the molecule “human EphB2 full-length Q472A/Y473A/E480A/Y481A (from UniProt P29323 19-1055) (receptor)”, the EphB2 phosphorylation in HEK293 cells after ephrin stimulation (anti-phosphotyrosine IP, anti-EphB2 blot), band intensity compared with the wild-type receptor (% higher than wild type) in data set [2] amounted to 46.
For the molecule “human EphB2 full-length Y481E (from UniProt P29323 19-1055) (receptor)”, in data set [3], the EphB2 kinase domain phosphorylation in HEK293 cells (anti-phosphotyrosine IP, anti-EphB2 blot), compared with the wild-type receptor (% lower than wild type) amounted to 56.

B1: mouse EphB2 extracellular domain (ECD) (residues 19-543) (domain or fragment, UniProt P54763 19-543, looked up)
chain: VEETLMDSTTATAELGWMVHPPSGWEEVSGYDENMNTIRTYQVCNVFESSQNNWLRTKFIRRRGAHRIHVEMKFSVRDCSSIPSVPGSCKETFNLYYYEADFDLATKTFPNWMENPWVKVDTIAADESFSQVDLGGRVMKINTEVRSFGPVSRNGFYLAFQDYGGCMSLIAVRVFYRKCPRIIQNGAIFQETLSGAESTSLVAARGSCIANAEEVDVPIKLYCNGDGEWLVPIGRCMCKAGFEAVENGTVCRGCPSGTFKANQGDEACTHCPINSRTTSEGATNCVCRNGYYRADLDPLDMPCTTIPSAPQAVISSVNETSLMLEWTPPRDSGGREDLVYNIICKSCGSGRGACTRCGDNVQYAPRQLGLTEPRIYISDLLAHTQYTFEIQAVNGVTDQSPFSPQFASVNITTNQAAPSAVSIMHQVSRTVDSITLSWSQPDQPNGVILDYELQYYEKELSEYNATAIKSPTNTVTVQGLKAGAIYVFQVRARTVAGYGRYSGKMYFQTMTEAEYQTSIKEKLPL
modifications: glycosylated at N265, N336, N428 and N482
notes: EphB2 (ephrin type-B receptor 2), mouse, extracellular domain (LBD, CRD, FN1, FN2), residues 19-543; also called EphB2-ECD; EphB2 ECD; not shown: Fc (human), C-terminal, cleaved
Take B1: in data set [4], the binding result is on record as “binds”.
